According to US20230235013A1 (MABSOLVE, published 2023):

Molecular target: T1, Histidine-tagged recombinant human FcγRI (CD64) (human, UniProt P12314 16-288)
T1 construct: bought; also called Sino Biological Cat. No. 12056-H08H
Assay: SPR, culture supernatant, captured His-FcγRI;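 further: biacore T200 SPR at 25 °C, anti-His capture, supernatants of HEK293 cells expressing IgG1 Fc variants injected 1 min, reference-subtracted response read 55 s after injection start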
Method: Binding analysis was carried out by surface plasmon resonance at 25° C. using a Biacore® T200 instrument with Biacore® T200 control software. The running buffer (HBS-EP+) consisted of 0.01 M HEPES pH 7.4, containing 0.15 M NaCl, 3 mM EDTA, and 0.05% v/v Surfactant P20. The sample compartment was held at 4° C. during analysis.
The cell was activated by treatment with EDC/NHS for 7 min. The antibody was diluted to 5 μg/mL in 10 mM sodium acetate pH 4.5 and injected for 7 min at 5 μL/min. The flow cell was deactivated by injection of 1M ethanolamine for 7 min. This process was repeated in the absence of anti-his antibody on a separate flow cell to generate a reference surface. […] Samples of undiluted culture supernatants from HEK293 cells expressing human IgG1 antibodies comprising variant Fc regions were injected for 1 min at 30 μL/min and allowed to disassociate for 2 min. […] Therefore, regeneration between cycles was not necessary. Responses on the test flow cell (coupled with anti-His antibody) were analysed after subtraction of responses on the control flow cell (sham-coupled). The relative binding response was measured 55 sec after the beginning of sample injection. To account for any possible drift in response due to slow dissociation of the His-tagged FcγRI, the binding response was measured relative to a baseline interpolated between report points located before sample injection and at the end of dissociation.
The whole experiment was repeated three times. Due to the relatively crude nature of the samples (variable refractive index, presence of culture media and other cellular products), some sensorgrams were unsatisfactory and were eliminated from analysis. The mean and standard deviation of binding response was then calculated for each sample.

| Binder | Mean binding response |
| --- | --- |
| anti-CD20 human IgG1 L234E/G236R (antibody, also called 1-39; 2-15; copies: 2 + 2) heavy: not shown light: QIVLSQSPAILSASPGEKVTMTCRASSSVSYIHWFQQKPGSSPKPWIYATSNLASGVPVRFSGSGSGTSYSLTISRVEAEDAATYYCQQWTSNPPTFGGGTKLEIKRTVAAPSVFIFPPSDEQLKSGTASVVCLLNNFYPREAKVQWKVDNALQSGNSQESVTEQDSKDSTYSLSSTLTLSKADYEKHKVYACEVTHQGLSSPVTKSFNRGEC | 17.6 RU |
| anti-CD20 human IgG1 L234E/L235K/G236R (antibody, also called 1-38; copies: 2 + 2) heavy: QVQLQQPGAELVKPGASVKMSCKASGYTFTSYNMHWVKQTPGRGLEWIGAIYPGNGDTSYNQKFKGKATLTADKSSSTAYMQLSSLTSEDSAVYYCARSTYYGGDWYFNVWGAGTTVTVSSASTKGPSVFPLAPSSKSTSGGTAALGCLVKDYFPEPVTVSWNSGALTSGVHTFPAVLQSSGLYSLSSVVTVPSSSLGTQTYICNVNHKPSNTKVDKKVEPKSCDKTHTCPPCPAPEEKRGPSVFLFPPKPKDTLMISRTPEVTCVVVDVSHEDPEVKFNWYVDGVEVHNAKTKPREEQYNSTYRVVSVLTVLHQDWLNGKEYKCKVSNKALPAPIEKTISKAKGQPREPQVYTLPPSRDELTKNQVSLTCLVKGFYPSDIAVEWESNGQPENNYKTTPPVLDSDGSFFLYSKLTVDKSRWQQGNVFSCSVMHEALHNHYTQKSLSLSPGK light: QIVLSQSPAILSASPGEKVTMTCRASSSVSYIHWFQQKPGSSPKPWIYATSNLASGVPVRFSGSGSGTSYSLTISRVEAEDAATYYCQQWTSNPPTFGGGTKLEIKRTVAAPSVFIFPPSDEQLKSGTASVVCLLNNFYPREAKVQWKVDNALQSGNSQESVTEQDSKDSTYSLSSTLTLSKADYEKHKVYACEVTHQGLSSPVTKSFNRGEC | 34.1 RU |
| anti-CD20 human IgG1 L234E/L235E/G236R (antibody, also called 1-34; copies: 2 + 2) heavy: QVQLQQPGAELVKPGASVKMSCKASGYTFTSYNMHWVKQTPGRGLEWIGAIYPGNGDTSYNQKFKGKATLTADKSSSTAYMQLSSLTSEDSAVYYCARSTYYGGDWYFNVWGAGTTVTVSSASTKGPSVFPLAPSSKSTSGGTAALGCLVKDYFPEPVTVSWNSGALTSGVHTFPAVLQSSGLYSLSSVVTVPSSSLGTQTYICNVNHKPSNTKVDKKVEPKSCDKTHTCPPCPAPEEERGPSVFLFPPKPKDTLMISRTPEVTCVVVDVSHEDPEVKFNWYVDGVEVHNAKTKPREEQYNSTYRVVSVLTVLHQDWLNGKEYKCKVSNKALPAPIEKTISKAKGQPREPQVYTLPPSRDELTKNQVSLTCLVKGFYPSDIAVEWESNGQPENNYKTTPPVLDSDGSFFLYSKLTVDKSRWQQGNVFSCSVMHEALHNHYTQKSLSLSPGK light: QIVLSQSPAILSASPGEKVTMTCRASSSVSYIHWFQQKPGSSPKPWIYATSNLASGVPVRFSGSGSGTSYSLTISRVEAEDAATYYCQQWTSNPPTFGGGTKLEIKRTVAAPSVFIFPPSDEQLKSGTASVVCLLNNFYPREAKVQWKVDNALQSGNSQESVTEQDSKDSTYSLSSTLTLSKADYEKHKVYACEVTHQGLSSPVTKSFNRGEC | 30.9 RU |
| anti-CD20 human IgG1 L234D/L235R/G236R (antibody, also called 1-28; copies: 2 + 2) heavy: QVQLQQPGAELVKPGASVKMSCKASGYTFTSYNMHWVKQTPGRGLEWIGAIYPGNGDTSYNQKFKGKATLTADKSSSTAYMQLSSLTSEDSAVYYCARSTYYGGDWYFNVWGAGTTVTVSSASTKGPSVFPLAPSSKSTSGGTAALGCLVKDYFPEPVTVSWNSGALTSGVHTFPAVLQSSGLYSLSSVVTVPSSSLGTQTYICNVNHKPSNTKVDKKVEPKSCDKTHTCPPCPAPEDRRGPSVFLFPPKPKDTLMISRTPEVTCVVVDVSHEDPEVKFNWYVDGVEVHNAKTKPREEQYNSTYRVVSVLTVLHQDWLNGKEYKCKVSNKALPAPIEKTISKAKGQPREPQVYTLPPSRDELTKNQVSLTCLVKGFYPSDIAVEWESNGQPENNYKTTPPVLDSDGSFFLYSKLTVDKSRWQQGNVFSCSVMHEALHNHYTQKSLSLSPGK light: QIVLSQSPAILSASPGEKVTMTCRASSSVSYIHWFQQKPGSSPKPWIYATSNLASGVPVRFSGSGSGTSYSLTISRVEAEDAATYYCQQWTSNPPTFGGGTKLEIKRTVAAPSVFIFPPSDEQLKSGTASVVCLLNNFYPREAKVQWKVDNALQSGNSQESVTEQDSKDSTYSLSSTLTLSKADYEKHKVYACEVTHQGLSSPVTKSFNRGEC | 47 RU |
| anti-CD20 human IgG1 L234E/L235A/G236R (antibody, also called 1-32; copies: 2 + 2) heavy: not shown light: QIVLSQSPAILSASPGEKVTMTCRASSSVSYIHWFQQKPGSSPKPWIYATSNLASGVPVRFSGSGSGTSYSLTISRVEAEDAATYYCQQWTSNPPTFGGGTKLEIKRTVAAPSVFIFPPSDEQLKSGTASVVCLLNNFYPREAKVQWKVDNALQSGNSQESVTEQDSKDSTYSLSSTLTLSKADYEKHKVYACEVTHQGLSSPVTKSFNRGEC | 44.1 RU |
| anti-CD20 human IgG1 L234D/L235T/G236R (antibody, also called 1-30; 2-11; copies: 2 + 2) heavy: QVQLQQPGAELVKPGASVKMSCKASGYTFTSYNMHWVKQTPGRGLEWIGAIYPGNGDTSYNQKFKGKATLTADKSSSTAYMQLSSLTSEDSAVYYCARSTYYGGDWYFNVWGAGTTVTVSSASTKGPSVFPLAPSSKSTSGGTAALGCLVKDYFPEPVTVSWNSGALTSGVHTFPAVLQSSGLYSLSSVVTVPSSSLGTQTYICNVNHKPSNTKVDKKVEPKSCDKTHTCPPCPAPEDTRGPSVFLFPPKPKDTLMISRTPEVTCVVVDVSHEDPEVKFNWYVDGVEVHNAKTKPREEQYNSTYRVVSVLTVLHQDWLNGKEYKCKVSNKALPAPIEKTISKAKGQPREPQVYTLPPSRDELTKNQVSLTCLVKGFYPSDIAVEWESNGQPENNYKTTPPVLDSDGSFFLYSKLTVDKSRWQQGNVFSCSVMHEALHNHYTQKSLSLSPGK light: QIVLSQSPAILSASPGEKVTMTCRASSSVSYIHWFQQKPGSSPKPWIYATSNLASGVPVRFSGSGSGTSYSLTISRVEAEDAATYYCQQWTSNPPTFGGGTKLEIKRTVAAPSVFIFPPSDEQLKSGTASVVCLLNNFYPREAKVQWKVDNALQSGNSQESVTEQDSKDSTYSLSSTLTLSKADYEKHKVYACEVTHQGLSSPVTKSFNRGEC | 4.3 RU |

Second part, the binder after the results:

| Mean binding response | Binder |
| --- | --- |
| 8.3 RU | anti-CD20 human IgG1 L234D/L235Q/G236R (antibody, also called 1-27; 2-9; copies: 2 + 2) heavy: QVQLQQPGAELVKPGASVKMSCKASGYTFTSYNMHWVKQTPGRGLEWIGAIYPGNGDTSYNQKFKGKATLTADKSSSTAYMQLSSLTSEDSAVYYCARSTYYGGDWYFNVWGAGTTVTVSSASTKGPSVFPLAPSSKSTSGGTAALGCLVKDYFPEPVTVSWNSGALTSGVHTFPAVLQSSGLYSLSSVVTVPSSSLGTQTYICNVNHKPSNTKVDKKVEPKSCDKTHTCPPCPAPEDQRGPSVFLFPPKPKDTLMISRTPEVTCVVVDVSHEDPEVKFNWYVDGVEVHNAKTKPREEQYNSTYRVVSVLTVLHQDWLNGKEYKCKVSNKALPAPIEKTISKAKGQPREPQVYTLPPSRDELTKNQVSLTCLVKGFYPSDIAVEWESNGQPENNYKTTPPVLDSDGSFFLYSKLTVDKSRWQQGNVFSCSVMHEALHNHYTQKSLSLSPGK light: QIVLSQSPAILSASPGEKVTMTCRASSSVSYIHWFQQKPGSSPKPWIYATSNLASGVPVRFSGSGSGTSYSLTISRVEAEDAATYYCQQWTSNPPTFGGGTKLEIKRTVAAPSVFIFPPSDEQLKSGTASVVCLLNNFYPREAKVQWKVDNALQSGNSQESVTEQDSKDSTYSLSSTLTLSKADYEKHKVYACEVTHQGLSSPVTKSFNRGEC |
| 71.2 RU | anti-CD20 human IgG1 L234E/L235G/G236R (antibody, also called 1-35; copies: 2 + 2) heavy: QVQLQQPGAELVKPGASVKMSCKASGYTFTSYNMHWVKQTPGRGLEWIGAIYPGNGDTSYNQKFKGKATLTADKSSSTAYMQLSSLTSEDSAVYYCARSTYYGGDWYFNVWGAGTTVTVSSASTKGPSVFPLAPSSKSTSGGTAALGCLVKDYFPEPVTVSWNSGALTSGVHTFPAVLQSSGLYSLSSVVTVPSSSLGTQTYICNVNHKPSNTKVDKKVEPKSCDKTHTCPPCPAPEEGRGPSVFLFPPKPKDTLMISRTPEVTCVVVDVSHEDPEVKFNWYVDGVEVHNAKTKPREEQYNSTYRVVSVLTVLHQDWLNGKEYKCKVSNKALPAPIEKTISKAKGQPREPQVYTLPPSRDELTKNQVSLTCLVKGFYPSDIAVEWESNGQPENNYKTTPPVLDSDGSFFLYSKLTVDKSRWQQGNVFSCSVMHEALHNHYTQKSLSLSPGK light: QIVLSQSPAILSASPGEKVTMTCRASSSVSYIHWFQQKPGSSPKPWIYATSNLASGVPVRFSGSGSGTSYSLTISRVEAEDAATYYCQQWTSNPPTFGGGTKLEIKRTVAAPSVFIFPPSDEQLKSGTASVVCLLNNFYPREAKVQWKVDNALQSGNSQESVTEQDSKDSTYSLSSTLTLSKADYEKHKVYACEVTHQGLSSPVTKSFNRGEC |
| 27.2 RU | anti-CD20 human IgG1 L234D/L235V/G236R (antibody, also called 1-31; copies: 2 + 2) heavy: QVQLQQPGAELVKPGASVKMSCKASGYTFTSYNMHWVKQTPGRGLEWIGAIYPGNGDTSYNQKFKGKATLTADKSSSTAYMQLSSLTSEDSAVYYCARSTYYGGDWYFNVWGAGTTVTVSSASTKGPSVFPLAPSSKSTSGGTAALGCLVKDYFPEPVTVSWNSGALTSGVHTFPAVLQSSGLYSLSSVVTVPSSSLGTQTYICNVNHKPSNTKVDKKVEPKSCDKTHTCPPCPAPEDVRGPSVFLFPPKPKDTLMISRTPEVTCVVVDVSHEDPEVKFNWYVDGVEVHNAKTKPREEQYNSTYRVVSVLTVLHQDWLNGKEYKCKVSNKALPAPIEKTISKAKGQPREPQVYTLPPSRDELTKNQVSLTCLVKGFYPSDIAVEWESNGQPENNYKTTPPVLDSDGSFFLYSKLTVDKSRWQQGNVFSCSVMHEALHNHYTQKSLSLSPGK light: QIVLSQSPAILSASPGEKVTMTCRASSSVSYIHWFQQKPGSSPKPWIYATSNLASGVPVRFSGSGSGTSYSLTISRVEAEDAATYYCQQWTSNPPTFGGGTKLEIKRTVAAPSVFIFPPSDEQLKSGTASVVCLLNNFYPREAKVQWKVDNALQSGNSQESVTEQDSKDSTYSLSSTLTLSKADYEKHKVYACEVTHQGLSSPVTKSFNRGEC |
| 21.4 RU | anti-CD20 human IgG1 L234E/L235H/G236R (antibody, also called 1-36; 2-13; copies: 2 + 2) heavy: QVQLQQPGAELVKPGASVKMSCKASGYTFTSYNMHWVKQTPGRGLEWIGAIYPGNGDTSYNQKFKGKATLTADKSSSTAYMQLSSLTSEDSAVYYCARSTYYGGDWYFNVWGAGTTVTVSSASTKGPSVFPLAPSSKSTSGGTAALGCLVKDYFPEPVTVSWNSGALTSGVHTFPAVLQSSGLYSLSSVVTVPSSSLGTQTYICNVNHKPSNTKVDKKVEPKSCDKTHTCPPCPAPEEHRGPSVFLFPPKPKDTLMISRTPEVTCVVVDVSHEDPEVKFNWYVDGVEVHNAKTKPREEQYNSTYRVVSVLTVLHQDWLNGKEYKCKVSNKALPAPIEKTISKAKGQPREPQVYTLPPSRDELTKNQVSLTCLVKGFYPSDIAVEWESNGQPENNYKTTPPVLDSDGSFFLYSKLTVDKSRWQQGNVFSCSVMHEALHNHYTQKSLSLSPGK light: QIVLSQSPAILSASPGEKVTMTCRASSSVSYIHWFQQKPGSSPKPWIYATSNLASGVPVRFSGSGSGTSYSLTISRVEAEDAATYYCQQWTSNPPTFGGGTKLEIKRTVAAPSVFIFPPSDEQLKSGTASVVCLLNNFYPREAKVQWKVDNALQSGNSQESVTEQDSKDSTYSLSSTLTLSKADYEKHKVYACEVTHQGLSSPVTKSFNRGEC |
